In patent US20130244255A1 (published 2013):
Several values for one entry are separate records, joined by “and”; a condition that tells them apart may be missing. Identical values can stand only once.

Legend:
[1] = target: T1, Recombinant human GPNMB extra-cellular domain (ECD) with a C-terminus V5-HIS tag (human, UniProt Q14956 23-492); assay: ELISA on plates coated with recombinant GPNMB (His and V5 tagged), detection with anti-FLAG M2-HRP
T1 construct: Expressed in HEK293; also called GPNMB-V5His; GPNMB-soluble
T1 sequence: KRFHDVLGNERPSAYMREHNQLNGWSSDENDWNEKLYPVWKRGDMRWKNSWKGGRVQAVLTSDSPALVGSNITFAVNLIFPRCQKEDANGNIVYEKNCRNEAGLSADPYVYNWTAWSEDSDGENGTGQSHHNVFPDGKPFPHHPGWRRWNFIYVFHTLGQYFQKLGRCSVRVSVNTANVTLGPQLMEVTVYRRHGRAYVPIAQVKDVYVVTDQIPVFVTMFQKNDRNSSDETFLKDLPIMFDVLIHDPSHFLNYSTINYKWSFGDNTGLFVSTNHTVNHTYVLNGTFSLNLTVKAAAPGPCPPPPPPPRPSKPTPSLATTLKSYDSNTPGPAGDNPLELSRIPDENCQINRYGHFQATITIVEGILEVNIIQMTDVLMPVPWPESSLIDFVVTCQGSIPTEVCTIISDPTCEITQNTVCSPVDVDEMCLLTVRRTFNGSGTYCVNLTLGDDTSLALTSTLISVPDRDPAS
Experimental: Plates were then blocked and washed. […] Plates were incubated for 1 h and washed. HRP-conjugated anti-FLAG M2 mAb (Sigma, St. Louis, Mo.) was added into the wells for 1 h, washed and the reaction developed with the TMB substrate reagent as described by the manufacturer (Pharmingen, San Jose, Calif.).

[2] = target: T2, CD3 on purified human T cells (human, UniProt P07766 23-207; P04234 22-171; P09693 23-182); assay: flow cytometry on purified human T cells, mouse anti-FLAG mAb and PE-conjugated goat anti-mouse Ig F(ab')2
T2 construct: also called human CD3 molecules
T2 sequence (P07766 23-207 limits assumed, chain 1 of 3): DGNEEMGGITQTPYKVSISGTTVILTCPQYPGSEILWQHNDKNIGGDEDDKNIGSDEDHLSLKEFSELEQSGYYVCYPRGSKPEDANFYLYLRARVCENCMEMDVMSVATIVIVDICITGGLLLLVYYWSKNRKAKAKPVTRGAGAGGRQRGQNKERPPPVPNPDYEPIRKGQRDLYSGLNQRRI
T2 sequence (P04234 22-171 limits assumed, chain 2 of 3): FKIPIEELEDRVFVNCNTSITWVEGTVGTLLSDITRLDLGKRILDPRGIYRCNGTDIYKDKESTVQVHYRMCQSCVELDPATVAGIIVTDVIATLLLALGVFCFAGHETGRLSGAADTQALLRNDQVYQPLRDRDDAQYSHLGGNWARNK
T2 sequence (P09693 23-182 limits assumed, chain 3 of 3): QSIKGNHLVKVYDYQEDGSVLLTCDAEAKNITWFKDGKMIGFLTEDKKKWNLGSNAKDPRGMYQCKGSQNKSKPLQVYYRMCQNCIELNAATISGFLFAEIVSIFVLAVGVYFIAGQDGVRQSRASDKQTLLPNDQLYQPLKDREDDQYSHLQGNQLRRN

[3] = target: T1, Recombinant human GPNMB extra-cellular …; assay: Biacore, mAb captured on protein A
Experimental: Certain Hybridoma cell supernatants (29) were analyzed for binding to GPNMB by BiaCore® 2000 biosensor equipped with a research-grade CM5 sensor chip. A 1:25 dilution of cell supernatant was passed over a protein A surface for 5 min followed by washing the surface for 10 mins. […] GPNMB binding data for each mAb was normalized for the amount of mAb captured on each surface. Normalized, drift corrected responses were also measured. The sensorgrams were fit to a simple 1:1 kinetic model.

[4] = target: T3, GPNMB (CG56972) as expressed by human cell lines (human, UniProt Q14956 23-492); assay: FACS on UACC-62 cells, antibody 1 ug/mL
T3 construct: Endogenous or transfected full-length protein on cells (FACS, killing assays) or in cell lysates (immunoprecipitation, blot); also called native GPNMB protein
T3 sequence: T1 sequence
Experimental: The specificity of anti-GPNMB antibodies to cell membrane-bound GPNMB protein expressed by melanoma cancer cell line, UACC-62 was analyzed by FACS analysis. […] Cells were washed twice with PBS (Ca and Mg free), incubated with Versene at 37° C. until cells detached, counted and aliquoted at 1 million cells per assay tube. Cells were then washed twice and resuspended in ice-cold FACS buffer (0.01 M HEPES, 0.15M NaCl, 0.1% NaN₃ and 4% FBS). Primary antibody at 1 μg/mL was added to the cells. Cells were incubated on ice for 30 min, washed 2-3 times and resuspended in 1 mL of ice-cold FACS buffer. R-PE-conjugated goat anti-human antibody (Jackson ImmunoResearch Laboratory) at 1:100 dilution was added and cells were incubated on ice for 30 min. After washing 3 times with 1 mL of ice-cold FACS buffer, cells were fixed with 0.5-1 mL of 1% formaldehyde in PBS and analyzed by flow cytometry.

[5] = target: T3, GPNMB (CG56972) as expressed by human …; assay: cell-based or functional assay
[6] = target: T3, GPNMB (CG56972) as expressed by human …; assay: cell-based or functional assay; remark: listed apart in the source
[7] = target: T3, GPNMB (CG56972) as expressed by human …; assay: cell-based or functional assay; remark: listed apart in the source
[8] = target: T3, GPNMB (CG56972) as expressed by human …; assay: cell-based or functional assay; remark: listed apart in the source
[9] = target: T3, GPNMB (CG56972) as expressed by human …; assay: cell-based or functional assay; remark: listed apart in the source
[10] = target: T3, GPNMB (CG56972) as expressed by human …; assay: cell-based or functional assay; remark: listed apart in the source

B1: CR011 single chain antibody (CR011 scFv), VL-L4-VH, Flag tag (scFv)
scFv: EIVMTQSPATLSVSPGERATLSCRASQSVDNNLVWYQQKPGQAPRLLIYGASTRATGIPARFSGSGSGTEFTLTISSLQSEDFAVYYCQQYNNWPPWTFGQGTKVEIKLSADDAKKDAAKKDDAKKDDAKKDLQVQLQESGPGLVKPSQTLSLTCTVSGGSISSFNYYWSWIRHHPGKGLEWIGYIYYSGSTYSNPSLKSRVTISVDTSKNQFSLTLSSVTAADTAVYYCARGYNWNYFDYWGQGTLVTVSSASDYKDDDDK
notes: also called CR011 scFv monomer; mono-specific anti-GPNMB scFv
[1]
  binding result: binds
[2]
  binding result: no binding (tested: 5 ug/sample/100 ul)

B2: Mab1.10.2 (antibody, IgG2, V domains shown)
VH: QVQLQESGPGLVKPSETLSLTCTVSGDSISNYYWSWIRQPPGKGLEWIGYFYYSGSTNYNPSLKSRVTISVDTSKNQFSLKLSSVTAADTAVYYCARDRGWADYWGQGTLVTVSS
VL: EIVLTQSPGTLSLSPGERATLSCRTSQSISSSYLAWYQQKPGQVPRLLIYGASSRATGIPDRFSGSGSGTDFTLTISRLEPEDFAVYYCQQYGSSITFGQGTRLEIKR
notes: Fully human hybridoma antibody (XenoMouse XMG2, IgG2 kappa)
[3]
  Kd: 118 nM
  koff: 0.000466 s⁻¹
  kon: 3960 M⁻¹ s⁻¹

B3: Mab1.2.2 (antibody, IgG2, V domains shown)
VH: ITLKESGPTLVKPTQTLTLTCTFSGFSLSAGGVGVGWIRQPPGKALEWLALIYWNDDKRYSPSLRSRLTITKDTSKNQVVLTITNMDPVDTATYYCAHSHYDYDWGSYFDYWGQGTLVTVSS
VL: DIVMTQTPLSLPVTPGEPASISCRSSQSLLDSDDGNTYLDWYLQKPGQSPQLLIYTLSYRASGVPDRFSGSGSGTDFTLNISRVEAEDVGVYYCMQRIEFPITFGQGTRLEIKR
notes: Fully human hybridoma antibody (XenoMouse XMG2, IgG2 kappa); also called CR011.1.2.2
[3]
  Kd: 96 nM
  koff: 0.00089 s⁻¹
  kon: 9260 M⁻¹ s⁻¹
[4]
  Geo Mean Ratio (relative to pK16): 1.24 ratio

B4: Mab2.10.2 (antibody, IgG2, V domains shown)
VH: QLVESGGGVVQPGRSLRLSCAASGFAFSSYGMHWVRQAPGKGLEWVAVISYDGNNKYYADSVKGRFTISRDNSKNTLYLQMNSLRAEDTAVYYCARDLVVRGIRGYYYYFGMDVWGQGTTVTVSS
VL: not shown
notes: Fully human hybridoma antibody (XenoMouse XMG2, IgG2 kappa); also called CR011.2.10.2
[5]
  killing of UACC-62 cells with saporin-conjugated secondary antibody (colony count): > 70%
[4]
  Geo Mean Ratio (relative to pK16): 2.6 ratio

B5: Mab1.7.1 (antibody, IgG2, V domains shown)
VH: QVQLQESGPGLVKPSQTLSLTCTVSGGSISSANYYWTWIRQHPGKGLEWIGYIYYSGSTYCNPSLKSRVIISVDTSKNQFSLKLSSVTAADTAVYYCARGYNWNYFDYWGQGTLVTVSS
VL: DIVMTQSPATLSVSPGERATLSCRASQSVSSNLAWYQERPGQAPRLLIYGASTRATGIPARFSGSGSGTEFTLTISSLQSEDFAVYYCQQYNKWPPWTFGQGTKVEIER
notes: as for B2
[3]
  Kd: 122 nM
  koff: 0.00144 s⁻¹
  kon: 11800 M⁻¹ s⁻¹

B6: Mab2.22.1 (antibody, IgG2, V domains shown)
VH: QVQLEQSGPGLVKPSQNLSLTCTVSGGSISSGGYFWSWIRQHPGKGLEWIGYIYYSGNTYYNPSLKSRVTISVDTSKNQFSLKLSSVTAADTAVYYCARDYYYDTSGFSYRYDWYYGMDVWGQGTTVTVSS
VL: DIQLTQSPSSLSASVGDRVTITCRASQGIRNDLGWYQQKPGKAPKRLIYAASSLQNGVPSRFSGSGSGTEFTLTISSLQPEDFATYYCLQHNTYPAFGQGTKVEIKR
notes: Fully human hybridoma antibody (XenoMouse XMG2, IgG2 kappa); also called CR011.2.22.1
[5]
  killing of UACC-62 cells with saporin-conjugated secondary antibody (colony count): > 70%
[4]
  Geo Mean Ratio (relative to pK16): 4.46 ratio

B7: CR011-vcMMAE (antibody, human IgG2)
heavy: QVQLQESGPGLVKPSQTLSLTCTVSGGSISSFNYYWSWIRHHPGKGLEWIGYIYYSGSTYSNPSLKSRVTISVDTSKNQFSLTLSSVTAADTAVYYCARGYNWNYFDYWGQGTLVTVSSASTKGPSVFPLAPCSRSTSESTAALGCLVKDYFPEPVTVSWNSGALTSGVHTFPAVLQSSGLYSLSSVVTVPSSNFGTQTYTCNVDHKPSNTKVDKTVERKCCVECPPCPAPPVAGPSVFLFPPKPKDTLMISRTPEVTCVVVDVSHEDPEVQFNWYVDGVEVHNAKTKPREEQFNSTFRVVSVLTVVHQDWLNGKEYKCKVSNKGLPAPIEKTISKTKGQPREPQVYTLPPSREEMTKNQVSLTCLVKGFYPSDIAVEWESNGQPENNYKTTPPMLDSDGSFFLYSKLTVDKSRWQQGNVFSCSVMHEALHNHYTQKSLSLSPGK
VL: not shown
modifications: vcMMAE (maleimidocaproyl-valine-citrulline-monomethylauristatin E) on cysteine thiols of reduced disulfides, about 4 per antibody; positions not given
[6]
  Clonogenic Assay with 1.15.1-AE IC50, G361: 1050 ng/mL and 6500 pM
  Clonogenic Assay with 1.15.1-AE IC50, RPMI-7951: 972 ng/mL and 6000 pM
  Clonogenic Assay with 1.15.1-AE IC50, SK-Mel 2: 111 ng/mL and 750 pM
  Clonogenic Assay with 1.15.1-AE IC50, SK-Mel 5: 237 ng/mL and 1600 pM
  Clonogenic Assay with 1.15.1-AE IC50, UACC-62: 697 ng/mL and 4300 pM
  Clonogenic Assay with 1.15.1-AE IC50, UACC-257: 825 ng/mL and 5500 pM
  Clonogenic Assay with 1.15.1-AE IC50, WM-266-4: 345 ng/mL and 2300 pM
[7]
  Clonogenic Assay with 1.15.1-AE IC50, SR: 296 ng/mL and 2000 pM
  Clonogenic Assay with 1.15.1-AE IC50, THP-1: 207 ng/mL and 1400 pM
  Clonogenic Assay with 1.15.1-AE IC50, U937: 340 ng/mL and 2400 pM
[8]
  CR011-AE IC50, clonogenic assay, SF-268 (weakly expressing): > 1.5 µg/mL
  CR011-AE IC50, clonogenic assay, SF-539: 1.03 µg/mL
  CR011-AE IC50, clonogenic assay, SK-MEL-2: 0.303 µg/mL
  CR011-AE IC50, clonogenic assay, SNB-78: 0.449 µg/mL
  CR011-AE IC50, clonogenic assay, U-118-MG: 1.25 µg/mL
  CR011-AE IC50, clonogenic assay, XF-498: 0.216 µg/mL
[9]
  IC50 of colony formation (clonogenic assay, % of control, 96 h) on HEK293 cells transfected with GPNMB (circles); Vector + CR011-vcMMAE (diamonds) is printed as >1000: 0.3 µg/mL
[10]
  IC50 of colony formation (clonogenic assay, % of control) on SK-Mel-2 cells transfected with control siRNA (circles): 0.22 µg/mL
  IC50 of colony formation (clonogenic assay, % of control) on mock-transfected SK-Mel-2 cells (diamonds): 0.33 µg/mL
